± gives the uncertainty stated by the source.
Test: amyloid nucleation score (Sup35N fusion, yeast selection) (log enrichment); library NNK1; higher = more nucleation; inactive = no reads after selection
How it was run: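 The nucleation score is a DiMSum log enrichment of output over input reads, centred on the mode score of non-aggregating sequences. Sequences under 100 input reads were excluded, and reads came from Illumina sequencing of plasmid inserts. Psi-negative yeast expressing Sup35N fused to peptides of 20 random codons were induced with 100 μM copper sulfate for 24 hours and grown 7 days at 30°C on medium lacking adenine and uracil. Random libraries had three technical output replicates.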

Substance	amyloid nucleation score
VAYRVFCD	0.51 ± 0.36
ANSVIFDGRSKGLAKHTVSY	-0.276 ± 0.65
GNFLFCTVDRHLTGSCS	0.589 ± 0.47
MFKNRGG	0.057 ± 0.36
EDVAYYGNGFRLTYDRQITL	-0.733 ± 0.67
RLFFSE	0.117 ± 0.32
RADWYASAGKRCGHLQG	-0.148 ± 0.3
ALFGERPCCRC	0.158 ± 0.28
FDHSG	inactive
ISNFVGTTMIIQGSVNTVYK	6.962 ± 0.055
GNFGWHSLSYRDNYICSWAL	4.43 ± 0.068
CRCTVNHVMVRLSRGCRDAH	inactive
NYIVLFSSRDVCTHNMYKTV	0.342 ± 0.71
RIISGRLSSMFVNSIKVIMD	0.889 ± 0.21
RSLFFV	-0.867 ± 0.86
CHLNFMCWPTAQDENMPIFG	-0.09 ± 0.31
SPSKLGSE	0.903 ± 0.56
TNGWTQHKYKYRSFSGHFII	inactive
SATNCRTGKDCRERGHTLGL	0.628 ± 0.33
ESMRFHRGEVGPLWDVRWGA	1.61 ± 0.78
RVCVFIN	inactive
PWTYQHGQLASWVLGES	-0.242 ± 0.33
TLSFIRAYSVPHQVLRMESL	0.87 ± 0.64
HPLLMYWRRTFVEHRLYLT	0.031 ± 1.2
VGLTARHKCWVGTCRGGPRT	-0.711 ± 1.3
PLVGWSRYSGAIPTSVMFLA	4.21 ± 0.071

Substance	amyloid nucleation score
EFKWYFAISDKCYVRLKLIK	0.751 ± 0.45
AIFNLVSSL	-0.792 ± 1
GLVFTLWSASRCFFLRKKLW	-0.083 ± 0.83
QFSAIIMSLSLLWSFMCAWE	-0.217 ± 0.55
VYMGFVCEIVVNKEKRVGTF	0.008 ± 0.84
NPSGFRSTEWYV	-0.421 ± 0.56
HFCHFVGLNPVQKRRVVPWG	inactive
SSAELFREPFQVNRCNCEGW	0.774 ± 0.47
KVGLLWGT	0.197 ± 0.93
PSIEEEFSWVPAVFFFTWDM	-0.706 ± 1.2
LSMWSRHSMTPRFFLGLTPV	0.766 ± 0.69
THHSTSVSGVDQW	0.289 ± 0.52
NPRISCFVLQIRSAALSQSV	-0.007 ± 0.92
GCSLWVGVLCKNCFFDDLIM	5.807 ± 0.055
WFRYYYLFNRVRTFRERTNF	0.094 ± 1.4
DNLNYEMHVLWMCNL	4.82 ± 0.056
HNHSTYFHYRFGVSLVLTSR	2.29 ± 0.38
KIILPVSGVKINMQAWSRSH	4.07 ± 0.091
YSCGSIPYIRLVLKLIGYVI	-0.016 ± 0.39
SVLWRGIFCFWIAWFV	-1.39 ± 2.4
FRCYVFANCD	1.59 ± 0.4
TSVHDRQELRDRLV	0.69 ± 0.32
IIGTPVPYLGVLKTFDIKYF	0.125 ± 0.36
FRSLFYVFHYLECFYL	3.52 ± 0.12
KCIWFMHDFCYMVLMR	-0.164 ± 0.72
NGEILSTLDDVTMLRIRTTC	0.071 ± 0.41

Substance	amyloid nucleation score
FSWCGWQRRSSVVAGSRILW	-0.118 ± 1.1
RVLSSTNHSAYHWIEKGSTF	1.01 ± 0.31
YTFNVVCILTTEYWGNGWLY	2.91 ± 0.16
NKLGLLRVFKVRFPPCCCCD	-0.266 ± 0.99
MSASLWRGNKVDHWHSECYK	-0.661 ± 0.64
MLWSL	0.342 ± 0.59
FLLHF	-0.177 ± 0.62
TVLPF	1.6 ± 0.55
FTGCGLSPMGT	1.05 ± 0.73
FFHSAYCFCNNLPMGLDLWS	5.81 ± 0.083
IVTRWY	-0.257 ± 0.21
YVDVSSS	0.834 ± 0.61
SSQDYAHSIAGLVYGC	-0.137 ± 0.98
TVLFV	0.298 ± 0.38
RCIPLNNNFYASKQLLMSME	0.259 ± 0.62
VRDKSGPYYSSV	0.705 ± 0.4
YYIMYYAGSFIRGEMVHRLT	-0.581 ± 0.32
GRFRLVMVFCAGNGNAGGER	1.52 ± 0.52
LPDVKCVLLLMLHLEASRSA	-0.21 ± 0.58
CDCTNT	-0.78 ± 1.4
ISCWRNYLDLSSLYLFALFI	2.53 ± 0.077
FSKQTPVASEG	inactive
DLNLFDRNHVELRMIVD	0.726 ± 0.65
KPWYFVISW	-0.007 ± 1.2
MIGTYRWMLIMGLETVRKGG	inactive
RGRVSNY	-0.455 ± 1.4

Substance	amyloid nucleation score
YPTSCVYMCQQAKPFLVLIL	-0.655 ± 0.6
FLIFKSCLVGILRSSNKIGC	-0.469 ± 1.1
FESTPLVGHTRASSRYCARF	-0.742 ± 2.1
NTCHKIDSTI	-0.13 ± 0.59
EPMMLY	0.333 ± 0.28
GCQLLYAKHIQSIMSQRPKN	0.374 ± 0.65
FEGLVQL	inactive
DWRNAFLLCYANRNVQTCMS	-0.673 ± 0.3
LATNFCDTMRYVNGFRIAWC	0.647 ± 0.66
MRYLNFLCHCVVVYVVMSAS	2.16 ± 0.57
FYAVVEQIKFMRSLNLNLLN	-0.08 ± 0.36
EITFPRAMWANRTTTMDRIM	-0.036 ± 0.4
MHISCNTDSSYTFGRNALK	0.341 ± 0.74
ICLITVSMYKSRWIFSKKLT	-0.073 ± 0.54
GWSNNCAFNLQFGISKKN	1.54 ± 0.47
HSPLTRNVRSCVK	0.718 ± 0.36
KASCVVLAMLWLVLALGEPG	0.116 ± 0.81
HEGGQWLRKLTGPLGLRFMR	0.216 ± 0.48
SSYSRCTFKAFKLGSVRVQV	0.924 ± 0.7
YNGGCACMEAVMRFGGFFTL	-0.066 ± 0.28
CVWFFLFPVQAITLFDLESV	-0.033 ± 0.74
FLVNFGWRFAD	1.14 ± 0.32
DKWRVRCCRFWLT	0.191 ± 0.29
SSRSGPPCACRTRKLACGMM	0.145 ± 0.47
WGAYTLKVGVDLIP	0.195 ± 0.57
LNPLVLSCSGEIDSMFNV	1.11 ± 0.34

Substance	amyloid nucleation score
SGSVTVCGIATTPCNMGDRK	0.405 ± 0.79
DQRVDR	0.107 ± 0.89
FMSNIDLFTGFLRDMWFIIF	-0.312 ± 0.55
DMKNDYLHVGFWVLIGWHYL	0.743 ± 0.37
QRQNVYVGGYIANMVHGSGC	1.27 ± 0.58
YRIPLARMWMVTLPL	-0.317 ± 0.8
LCGTMWAG	0.62 ± 0.51
KETSGYRFYRMANLP	-0.21 ± 1.2
YRHPVMTWEPSRDLSFVLCL	0.388 ± 0.84
FRDYLAKPCGGWEEYLVDDT	0.68 ± 0.48
RTIHAIERDDCLRGNSGKNN	1.12 ± 0.57
MSKIGLLRLDDYHRMGFCKQ	-0.469 ± 0.38
VFSCWKAVILIPVQGVLVQR	0.616 ± 0.41
ESLFPVCGEMTVTCPLSPTE	0.423 ± 1.4
WVLKL	0.916 ± 0.54
GRAWCFY	0.15 ± 0.33
IQYELMRMACSRNFIIAEFF	0.2 ± 0.72
SRLAKLSFKQGNTTVCTKSS	-0.742 ± 0.62
HNFEFTRLAHLDSSTL	0.248 ± 0.47
TWRLDIFGGRRGRVASRKKW	-0.076 ± 0.96
CTNATVPASSTERV	1.55 ± 0.5
VQWLHDMLVHFN	-0.022 ± 1
YSIYRINFPVIALHFTGHCV	-0.902 ± 0.9
EFVVGDKR	-0.311 ± 0.82
LPMLLFAHITFNMLNDVSPN	5.94 ± 0.086

— the supplement of paper PMC12042874
